Source: patent US5935927A, “Compositions and methods for stimulating amyloid removal in amyloidogenic diseases using advanced glycosylation endproducts” (The Picower Institute For Medical Research, priority 1996, dated 1999)
Read-outs that look alike come from different tables or passages of the source.

Tests used:
soluble βAP = biological target: T1, soluble βAP (Homo sapiens, UniProt P05067); test: Thioflavin-T fluorescence assay of βAP aggregation and seeding; format: biochemical; conditions: for effect on fluorescent aggregate formation of βAP: 400 μM βAP 1-28, 0.1M sodium acetate pH 7.0, 100 mM glucose, 0.05M aminoguanidine, FIG. 4; for spontaneous formation of Thioflavin-T fluorescent aggregates: FIG. 1
T1 construct: Co-incubation of 400 μM βAP 1-28 in 0.1M sodium acetate, pH 7.0, with 100 mM glucose; purchased Bachem (Torrance, Calif.); host or cells: chemical synthesis
T1 sequence (P05067 672-699): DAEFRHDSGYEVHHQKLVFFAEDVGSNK
Description: Aggregation and Seeding Reactions. Synthetic, HPLC-purified peptides representing the first 28 (βAP 1-28) and the first 40 amino acids (βAP 1-40) of the 42 amino acid βAP were obtained from Bachem (Torrance, Calif.). Aggregation of soluble βAP 1-28 or βAP 1-40 at different concentrations was initiated by addition of 0.1M sodium acetate (NaOAc) at the indicated pH (between 4.7 and 7.5) and continued for the indicated times. Quantitative aggregate formation with sub-millimolar βAP concentrations was detected using the procedure of LeVine (1992, Protein Science 2:404-410). Briefly, fluorescence of aggregates added to 10 μM Thioflavin-T (Aldrich)/50 mM potassium phosphate buffer, pH 6.0, was measured upon excitation at 450±5 nm and detection of emission at 482±10 mn on a Perkin Elmer LS-50B spectrofluorimeter. Where indicated, small amounts of pre-formed aggregates or "nucleation seeds" were added to the soluble βAP and aggregation initiated with 0.1M sodium acetate.
Generations of "Seeds". […] After incubation, protein concentrations of seed preparations were measured and adjusted with buffer to 150 μM final concentration. […] Lysines at positions 16 and 28 of βAP contain primary amino groups which may react with reducing sugars to generate advanced glycosylation endproducts of AGEs. Indicated amounts of glucose and/or aminoguanidine, a potent inhibitor of advanced glycation and crosslink formation (Brownlee et al., 1986, Science 232:1629-1632), were also added to solutions of βAP before sodium acetate in some experiments.

[1] = test system: insulin-producing β-cells of the adult pancreas; conditions: rat cells; Lorenzo et al. 1994; cited from earlier work
[2] = test system: insulin-producing β-cells of the adult pancreas; conditions: human cells; Lorenzo et al. 1994; cited from earlier work

N=C(N)NN [aminoguanidine]
effect on fluorescent aggregate formation of βAP (soluble βAP): can inhibit the AGE-enhanced aggregation of βAP

O=C[C@H](O)[C@@H](O)[C@H](O)[C@H](O)CO [glucose]
effect on fluorescent aggregate formation of βAP (soluble βAP): stimulates fluorescent aggregate formation

human amylin fibrils: fibrils of the 37 amino acid islet amyloid polypeptide (IAPP), amylin (KCNTATCATQRLANFLVHSSNNFGAILSSTNVGSNTY; Islet amyloid polypeptide fibrils; UniProt P10997 34-70, looked up)
toxicity to β-cells [1]: toxic | toxicity to β-cells [2]: toxic

βAP 1-28: synthetic peptide representing the first 28 amino acids of the 42 amino acid βAP
spontaneous formation of Thioflavin-T fluorescent aggregates (soluble βAP; 600 μM, pH 7.2): spontaneously and rapidly formed Thioflavin-T fluorescent aggregates within minutes | spontaneous formation of Thioflavin-T fluorescent aggregates (soluble βAP; concentrations below 300 μM): aggregated very slowly with a considerable lag before fluorescent aggregates were measurable
